T1: human CLDN6 (UniProt P56747 1-220)
T1 chain: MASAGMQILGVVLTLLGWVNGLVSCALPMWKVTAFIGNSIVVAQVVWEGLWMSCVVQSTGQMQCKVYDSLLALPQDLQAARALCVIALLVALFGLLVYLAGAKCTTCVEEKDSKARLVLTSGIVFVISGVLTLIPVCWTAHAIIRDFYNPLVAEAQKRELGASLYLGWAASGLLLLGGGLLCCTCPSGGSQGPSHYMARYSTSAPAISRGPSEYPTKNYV

T2: human CLDN9 (UniProt O95484 1-217)
T2 chain: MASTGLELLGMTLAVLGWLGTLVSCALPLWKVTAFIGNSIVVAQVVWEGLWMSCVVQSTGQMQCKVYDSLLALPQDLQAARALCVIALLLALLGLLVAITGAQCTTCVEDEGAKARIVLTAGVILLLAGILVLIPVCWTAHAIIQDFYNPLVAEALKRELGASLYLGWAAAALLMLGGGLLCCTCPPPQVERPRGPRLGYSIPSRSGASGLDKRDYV

T3: CLDN6 I143V isotype (UniProt P56747 1-220)
T3 chain: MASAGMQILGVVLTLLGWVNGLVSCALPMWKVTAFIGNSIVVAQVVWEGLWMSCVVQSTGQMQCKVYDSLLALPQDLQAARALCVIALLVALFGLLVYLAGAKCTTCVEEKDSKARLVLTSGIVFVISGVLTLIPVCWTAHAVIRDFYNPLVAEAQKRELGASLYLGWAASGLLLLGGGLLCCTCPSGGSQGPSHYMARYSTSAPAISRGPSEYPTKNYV

T4: cyno CLDN6
T4 chain: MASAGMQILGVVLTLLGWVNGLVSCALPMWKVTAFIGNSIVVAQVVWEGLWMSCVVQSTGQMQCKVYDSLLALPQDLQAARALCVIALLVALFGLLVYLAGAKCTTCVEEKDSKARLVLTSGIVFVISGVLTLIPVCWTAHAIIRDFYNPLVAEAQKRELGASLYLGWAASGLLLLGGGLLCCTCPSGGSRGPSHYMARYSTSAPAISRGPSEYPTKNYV

T5: mouse CLDN6 (mouse, UniProt Q9Z262 1-219)
T5 chain: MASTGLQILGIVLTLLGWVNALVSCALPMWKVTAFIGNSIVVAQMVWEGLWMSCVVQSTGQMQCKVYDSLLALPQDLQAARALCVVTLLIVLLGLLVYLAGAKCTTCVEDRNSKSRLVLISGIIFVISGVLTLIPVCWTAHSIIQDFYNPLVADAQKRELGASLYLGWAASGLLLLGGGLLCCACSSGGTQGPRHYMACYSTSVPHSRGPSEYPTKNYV

B1: XENP34218, humanized C6-30 H1L1 bivalent mAb (antibody, V domains shown)
VH: QVQLVQSGAEVKKPGASVKVSCKTSGYTFTEYTMHWVRQAPGQSLEWMGGIDPNNGNTHYNQKFQGRVTITVDKSASTAYMELSSLRSEDTAVYYCARIYYFGRLYFDFWGAGTLVTVSS
VL: DIQMTQSPSSLSASVGDRVTITCQASEDIYNRLAWYQQKPGKVPKLLISGATSLETGVPSRFSGSGSGKDYTFTISSLQPEDIATYYCQQYWSSPLTFGGGTKVEIKR
B2: XENP35865 H2_L1.60 (antibody, V domains shown)
VH: EVQLVQSGAEVKKPGESLRISCKTSGYTFTEYTMHWVRQMPGKSLEWMGGIDPNNGNTHYNQKFQGHVTISVDKSISTAYLQWSSLKASDTAMYYCARIYYFGRLYFDFWGAGTLVTVSS
VL: DIQMTQSPSSLSASVGDRVTITCQASEDIYNRLAWYQQKPGKVPKLLISGATSLETGVPSRFSGSGSGKDYTFTISSLQPEDIATYYCQQLWSSPLTFGGGTKVEIKR
B3: XENP35090 H1.6_L1 (antibody, V domains shown)
VH: QVQLVQSGAEVKKPGASVKVSCKTSGYTFTEYTMHWVRQAPGQSLEWMGGIDPNSGNTHYNQKFQGRVTITVDKSASTAYMELSSLRSEDTAVYYCARIYYFGRLYFDFWGAGTLVTVSS
VL: DIQMTQSPSSLSASVGDRVTITCQASEDIYNRLAWYQQKPGKVPKLLISGATSLETGVPSRFSGSGSGKDYTFTISSLQPEDIATYYCQQYWSSPLTFGGGTKVEIKR
B4: XENP35888 H1.24_L1 (antibody, V domains shown)
VH: QVQLVQSGAEVKKPGASVKVSCKTSGYTFTEYTMHWVRQAPGQSLEWMGGIDPNNGNTHYNQKFQGRVTITVDKSASTAYMELSSLRSEDTAVYYCARIYYLGRLYFDFWGAGTLVTVSS
VL: DIQMTQSPSSLSASVGDRVTITCQASEDIYNRLAWYQQKPGKVPKLLISGATSLETGVPSRFSGSGSGKDYTFTISSLQPEDIATYYCQQYWSSPLTFGGGTKVEIKR
B5: XENP35891 H2.12_L1 (antibody, V domains shown)
VH: EVQLVQSGAEVKKPGESLRISCKTSGYDFTEYTMHWVRQMPGKSLEWMGGIDPNNGNTHYNQKFQGHVTISVDKSISTAYLQWSSLKASDTAMYYCARIYYFGRLYFDFWGAGTLVTVSS
VL: DIQMTQSPSSLSASVGDRVTITCQASEDIYNRLAWYQQKPGKVPKLLISGATSLETGVPSRFSGSGSGKDYTFTISSLQPEDIATYYCQQYWSSPLTFGGGTKVEIKR
B6: XENP35981 H2_L1.189 (antibody, V domains shown)
VH: EVQLVQSGAEVKKPGESLRISCKTSGYTFTEYTMHWVRQMPGKSLEWMGGIDPNNGNTHYNQKFQGHVTISVDKSISTAYLQWSSLKASDTAMYYCARIYYFGRLYFDFWGAGTLVTVSS
VL: DIQMTQSPSSLSASVGDRVTITCQASEDIYLRLAWYQQKPGKVPKLLISGATSLETGVPSRFSGSGSGKDYTFTISSLQPEDIATYYCQQYWSSPLTFGGGTKVEIKR
B7: XENP36040 H2.90_L1 (antibody, V domains shown)
VH: EVQLVQSGAEVKKPGESLRISCKTSGYTFTEYTMHWVRQMPGKSLEWMGGIDPNNLNTHYNQKFQGHVTISVDKSISTAYLQWSSLKASDTAMYYCARIYYFGRLYFDFWGAGTLVTVSS
VL: DIQMTQSPSSLSASVGDRVTITCQASEDIYNRLAWYQQKPGKVPKLLISGATSLETGVPSRFSGSGSGKDYTFTISSLQPEDIATYYCQQYWSSPLTFGGGTKVEIKR
B8: XENP34220, humanized C6-30 H2L1 bivalent mAb (antibody, V domains shown)
VH: EVQLVQSGAEVKKPGESLRISCKTSGYTFTEYTMHWVRQMPGKSLEWMGGIDPNNGNTHYNQKFQGHVTISVDKSISTAYLQWSSLKASDTAMYYCARIYYFGRLYFDFWGAGTLVTVSS
VL: DIQMTQSPSSLSASVGDRVTITCQASEDIYNRLAWYQQKPGKVPKLLISGATSLETGVPSRFSGSGSGKDYTFTISSLQPEDIATYYCQQYWSSPLTFGGGTKVEIKR
B9: XENP35886 H1.22_L1 (antibody, V domains shown)
VH: QVQLVQSGAEVKKPGASVKVSCKTSGYTFTEYTMHWVRQAPGQSLEWMGGIDPNNGNTHYNQKFQGRVTITVDKSASTAYMELSSLRSEDTAVYYCARILYFGRLYFDFWGAGTLVTVSS
VL: DIQMTQSPSSLSASVGDRVTITCQASEDIYNRLAWYQQKPGKVPKLLISGATSLETGVPSRFSGSGSGKDYTFTISSLQPEDIATYYCQQYWSSPLTFGGGTKVEIKR
B10: XENP34233 (C6-30_H1L1 x CD3 bsAb in the 2+1 Fab2-scFv-Fc format) (bispecific antibody)
heavy 1: QVQLVQSGAEVKKPGASVKVSCKTSGYTFTEYTMHWVRQAPGQSLEWMGGIDPNNGNTHYNQKFQGRVTITVDKSASTAYMELSSLRSEDTAVYYCARIYYFGRLYFDFWGAGTLVTVSSASTKGPSVFPLAPSSKSTSGGTAALGCLVKDYFPEPVTVSWNSGALTSGVHTFPAVLQSSGLYSLSSVVTVPSSSLGTQTYICNVNHKPSDTKVDKKVEPKSCDKTHTCPPCPAPPVAGPSVFLFPPKPKDTLMISRTPEVTCVVVDVKHEDPEVKFNWYVDGVEVHNAKTKPREEEYNSTYRVVSVLTVLHQDWLNGKEYKCKVSNKALPAPIEKTISKAKGQPREPQVYTLPPSREEMTKNQVSLTCDVSGFYPSDIAVEWESDGQPENNYKTTPPVLDSDGSFFLYSKLTVDKSRWEQGDVFSCSVMHEALHNHYTQKSLSLSPGK
heavy 2: QVQLVQSGAEVKKPGASVKVSCKTSGYTFTEYTMHWVRQAPGQSLEWMGGIDPNNGNTHYNQKFQGRVTITVDKSASTAYMELSSLRSEDTAVYYCARIYYFGRLYFDFWGAGTLVTVSSASTKGPSVFPLAPSSKSTSGGTAALGCLVKDYFPEPVTVSWNSGALTSGVHTFPAVLQSSGLYSLSSVVTVPSSSLGTQTYICNVNHKPSNTKVDKKVEPKSCGGGGSGGGGSQAVVTQEPSLTVSPGGTVTLTCGSSTGAVTTSNYANWVQQKPGKSPRGLIGGTNKRAPGVPARFSGSLLGGKAALTISGAQPEDEADYYCALWYSNHWVFGGGTKLTVLGKPGSGKPGSGKPGSGKPGSEVQLVESGGGLVQPGGSLRLSCAASGFTFSTYAMNWVRQAPGKGLEWVGRIRSKYNNYATYYADSVKGRFTISRDDSKNTLYLQMNSLRAEDTAVYYCVRHGNFGDSYVSWFAYWGQGTLVTVSSGGGGSGGGGSKTHTCPPCPAPPVAGPSVFLFPPKPKDTLMISRTPEVTCVVVDVKHEDPEVKFNWYVDGVEVHNAKTKPREEQYNSTYRVVSVLTVLHQDWLNGKEYKCKVSNKALPAPIEKTISKAKGQPREPQVYTLPPSREQMTKNQVKLTCLVKGFYPSDIAVEWESNGQPENNYKTTPPVLDSDGSFFLYSKLTVDKSRWQQGNVFSCSVMHEALHNHYTQKSLSLSPGK
light: not shown

Key:
human CLDN6 [1] = target: T1, human CLDN6; assay: HEK293E cell binding; avid
human CLDN9 [2] = target: T2, human CLDN9; assay: HEK293E cell binding; avid
human CLDN6 [3] = target: T1, human CLDN6; assay: HEK293E cell binding; avid
human CLDN9 [4] = target: T2, human CLDN9; assay: HEK293E cell binding; avid
human CLDN6 [5] = target: T1, human CLDN6; assay: flow cytometry, HEK293E cells
human CLDN9 [6] = target: T2, human CLDN9; assay: flow cytometry, HEK293E cells
CLDN6 I143V isotype = target: T3, CLDN6 I143V isotype; assay: flow cytometry, HEK293E cells
cyno CLDN6 = target: T4, cyno CLDN6; assay: flow cytometry, HEK293E cells
human CLDN6 [7] = target: T1, human CLDN6; assay: flow cytometry, HEK293E cells
mouse CLDN6 = target: T5, mouse CLDN6; assay: flow cytometry, HEK293E cells

| Binder | EC50 (human CLDN6 [1]) | EC50 (human CLDN9 [2]) | EC50 (human CLDN6 [3]) | EC50 (human CLDN9 [4]) | also measured |
| --- | --- | --- | --- | --- | --- |
| B1 | 0.344 µg/mL | 11.6 µg/mL | 1.24 µg/mL | 54.2 µg/mL |  |
| B2 | 0.686 µg/mL | 124 µg/mL |  |  |  |
| B3 | 0.903 µg/mL | 7.06 µg/mL | 1.56 µg/mL | 44.6 µg/mL |  |
| B4 | 0.657 µg/mL | 43.8 µg/mL |  |  |  |
| B5 | 0.474 µg/mL | 44.1 µg/mL |  |  |  |
| B6 | 0.404 µg/mL | 31.7 µg/mL |  |  |  |
| B7 | 0.706 µg/mL | 66.1 µg/mL |  |  |  |
| B8 | 0.391 µg/mL | 11.1 µg/mL | 1.63 µg/mL | 43.8 µg/mL |  |
| B9 | 0.941 µg/mL | 24.5 µg/mL |  |  |  |
| B10 |  |  |  |  | EC50 (human CLDN6 [5]): 0.359 µg/mL; EC50 (human CLDN9 [6]): 6.73 µg/mL; EC50 (CLDN6 I143V isotype): 0.329 µg/mL; EC50 (cyno CLDN6): 0.316 µg/mL; EC50 (human CLDN6 [7]): 0.224 µg/mL; EC50 (mouse CLDN6): 0.664 µg/mL |

— patent publication US20240400675A1 (published 2024)
